Results: the supplement of paper PMC10567573

B1: PTPRD (parent)
chain: PVVSMDLDPQPITDEEEGLIWVVG
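Note: lentivirally expressed fusions sorted by FACS into six bins by GFP to DsRed ratio, PSI derived from sequencing read proportions per bin multiplied by bin number.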

Variants of: B1
Assay: protein stability index of a GFP-peptide fusion (GPS, HEK-293T) (PSI 1-6); higher = more stable
Details: c terminus: a fixed tail appended
Variant PVVSMDLDPQPIDDEEEGLIWVVG [T13D] has a protein stability index of 4.13.
Variant PVVSMDLDPQPIIDEEEGLIWVVG [T13I] has a protein stability index of 2.71.
Work on PVVSMDLDPQPIADEEEGLIWVVG [T13A] yielded a protein stability index of 3.87.
PVVSMDLDPQPILDEEEGLIWVVG [T13L] showed a protein stability index of 3.07.
PVVSMDLDPQPINDEEEGLIWVVG [T13N] showed a protein stability index of 3.87.
Variant PVVSMDLDPQPIPDEEEGLIWVVG [T13P] has a protein stability index of 3.36.
With PVVSMDLDPQPICDEEEGLIWVVG [T13C] the protein stability index was 3.84.
For PVISMDLDPQPITDEEEGLIWVVG [V3I], the protein stability index was 3.49.
PVGSMDLDPQPITDEEEGLIWVVG [V3G] gave a protein stability index of 3.98.
With PVQSMDLDPQPITDEEEGLIWVVG [V3Q] the protein stability index was 3.87.
For PVKSMDLDPQPITDEEEGLIWVVG [V3K], the protein stability index was 3.48.
With PVMSMDLDPQPITDEEEGLIWVVG [V3M] the protein stability index was 3.61.
For PVLSMDLDPQPITDEEEGLIWVVG [V3L], the protein stability index was 3.74.
With PVASMDLDPQPITDEEEGLIWVVG [V3A] the protein stability index was 3.17.
Work on PVDSMDLDPQPITDEEEGLIWVVG [V3D] yielded a protein stability index of 3.91.
PVSSMDLDPQPITDEEEGLIWVVG [V3S] showed a protein stability index of 3.18.
For PVWSMDLDPQPITDEEEGLIWVVG [V3W], the protein stability index was 4.09.
In the case of PVNSMDLDPQPITDEEEGLIWVVG [V3N], the protein stability index is reported as 3.92.
In the case of PVPSMDLDPQPITDEEEGLIWVVG [V3P], the protein stability index is reported as 3.82.
In the case of PVFSMDLDPQPITDEEEGLIWVVG [V3F], the protein stability index is reported as 3.86.
In the case of PVHSMDLDPQPITDEEEGLIWVVG [V3H], the protein stability index is reported as 3.38.
Work on PVESMDLDPQPITDEEEGLIWVVG [V3E] yielded a protein stability index of 4.81.
PVTSMDLDPQPITDEEEGLIWVVG [V3T] showed a protein stability index of 4.66.
Variant PVYSMDLDPQPITDEEEGLIWVVG [V3Y] has a protein stability index of 3.88.
Work on PVVSMDLDPGPITDEEEGLIWVVG [Q10G] yielded a protein stability index of 3.99.
With PVVSMDLDPKPITDEEEGLIWVVG [Q10K] the protein stability index was 3.76.
Variant PVVSMDLDPTPITDEEEGLIWVVG [Q10T] has a protein stability index of 3.73.
PVVSMDLDPDPITDEEEGLIWVVG [Q10D] gave a protein stability index of 4.27.
Work on PVVSMDLDPAPITDEEEGLIWVVG [Q10A] yielded a protein stability index of 3.56.
Work on PVVSMDLDPPPITDEEEGLIWVVG [Q10P] yielded a protein stability index of 3.75.
In the case of PVVSMDLDPLPITDEEEGLIWVVG [Q10L], the protein stability index is reported as 3.74.
For PVVSMDLDPIPITDEEEGLIWVVG [Q10I], the protein stability index was 4.09.
For PVVSMDLDPNPITDEEEGLIWVVG [Q10N], the protein stability index was 3.42.
In the case of PVVSMDLDPMPITDEEEGLIWVVG [Q10M], the protein stability index is reported as 3.88.
Variant PVVSMDLDPCPITDEEEGLIWVVG [Q10C] has a protein stability index of 3.08.
Work on PVVSMDLDPRPITDEEEGLIWVVG [Q10R] yielded a protein stability index of 3.89.
Variant PVVSMDLDPWPITDEEEGLIWVVG [Q10W] has a protein stability index of 3.8.
Variant PVVSMDLDPSPITDEEEGLIWVVG [Q10S] has a protein stability index of 2.77.
PVVSMDLDPYPITDEEEGLIWVVG [Q10Y] gave a protein stability index of 2.92.
With PVVSMCLDPQPITDEEEGLIWVVG [D6C] the protein stability index was 3.6.
PVVSMILDPQPITDEEEGLIWVVG [D6I] gave a protein stability index of 2.56.
PVVSMELDPQPITDEEEGLIWVVG [D6E] gave a protein stability index of 4.24.
PVVSMRLDPQPITDEEEGLIWVVG [D6R] gave a protein stability index of 3.67.
PVVSMALDPQPITDEEEGLIWVVG [D6A] showed a protein stability index of 4.22.
PVVSMNLDPQPITDEEEGLIWVVG [D6N] gave a protein stability index of 4.53.
PVVSMYLDPQPITDEEEGLIWVVG [D6Y] showed a protein stability index of 2.25.
Variant PVVSMQLDPQPITDEEEGLIWVVG [D6Q] has a protein stability index of 3.5.
With PVVSMKLDPQPITDEEEGLIWVVG [D6K] the protein stability index was 2.99.
For PVVSMHLDPQPITDEEEGLIWVVG [D6H], the protein stability index was 3.24.
PVVSMTLDPQPITDEEEGLIWVVG [D6T] showed a protein stability index of 3.25.
Variant PVVSMPLDPQPITDEEEGLIWVVG [D6P] has a protein stability index of 3.48.
With PVVSMSLDPQPITDEEEGLIWVVG [D6S] the protein stability index was 3.4.
PVVSMWLDPQPITDEEEGLIWVVG [D6W] showed a protein stability index of 1.94.
PVVSMVLDPQPITDEEEGLIWVVG [D6V] gave a protein stability index of 2.7.
In the case of PVVSMFLDPQPITDEEEGLIWVVG [D6F], the protein stability index is reported as 2.36.
For PVVSMLLDPQPITDEEEGLIWVVG [D6L], the protein stability index was 3.35.
PVVSMDLDPQNITDEEEGLIWVVG [P11N] gave a protein stability index of 3.36.
PVVSMDLDPQFITDEEEGLIWVVG [P11F] gave a protein stability index of 3.25.
With PVVSMDLDPQKITDEEEGLIWVVG [P11K] the protein stability index was 3.68.
PVVSMDLDPQQITDEEEGLIWVVG [P11Q] showed a protein stability index of 4.39.
PVVSMDLDPQHITDEEEGLIWVVG [P11H] gave a protein stability index of 3.8.
For PVVSMDLDPQCITDEEEGLIWVVG [P11C], the protein stability index was 3.36.
With PVVSMDLDPQYITDEEEGLIWVVG [P11Y] the protein stability index was 2.67.
In the case of PVVSMDLDPQMITDEEEGLIWVVG [P11M], the protein stability index is reported as 4.27.
Variant PVVSMDLDPQTITDEEEGLIWVVG [P11T] has a protein stability index of 3.77.
Work on PVVSMDLDPQAITDEEEGLIWVVG [P11A] yielded a protein stability index of 4.67.
Variant PVVSMDLDPQIITDEEEGLIWVVG [P11I] has a protein stability index of 2.93.
For PVVMMDLDPQPITDEEEGLIWVVG [S4M], the protein stability index was 2.75.
PVVRMDLDPQPITDEEEGLIWVVG [S4R] gave a protein stability index of 3.82.
In the case of PVVHMDLDPQPITDEEEGLIWVVG [S4H], the protein stability index is reported as 3.31.
For PVVYMDLDPQPITDEEEGLIWVVG [S4Y], the protein stability index was 1.99.
In the case of PVVGMDLDPQPITDEEEGLIWVVG [S4G], the protein stability index is reported as 4.17.
PVVQMDLDPQPITDEEEGLIWVVG [S4Q] showed a protein stability index of 4.02.
For PVVVMDLDPQPITDEEEGLIWVVG [S4V], the protein stability index was 2.42.
Variant PVVNMDLDPQPITDEEEGLIWVVG [S4N] has a protein stability index of 4.01.
Work on PVVDMDLDPQPITDEEEGLIWVVG [S4D] yielded a protein stability index of 3.92.
In the case of PVVTMDLDPQPITDEEEGLIWVVG [S4T], the protein stability index is reported as 3.73.
PVVPMDLDPQPITDEEEGLIWVVG [S4P] gave a protein stability index of 4.45.
In the case of PVVIMDLDPQPITDEEEGLIWVVG [S4I], the protein stability index is reported as 2.28.
PVVCMDLDPQPITDEEEGLIWVVG [S4C] gave a protein stability index of 3.56.
PVVFMDLDPQPITDEEEGLIWVVG [S4F] showed a protein stability index of 2.65.
PVVWMDLDPQPITDEEEGLIWVVG [S4W] gave a protein stability index of 1.83.
PVVLMDLDPQPITDEEEGLIWVVG [S4L] gave a protein stability index of 2.89.
In the case of PVVEMDLDPQPITDEEEGLIWVVG [S4E], the protein stability index is reported as 5.11.
NVVSMDLDPQPITDEEEGLIWVVG [P1N] showed a protein stability index of 3.58.
Work on HVVSMDLDPQPITDEEEGLIWVVG [P1H] yielded a protein stability index of 3.02.
EVVSMDLDPQPITDEEEGLIWVVG [P1E] showed a protein stability index of 3.2.
RVVSMDLDPQPITDEEEGLIWVVG [P1R] gave a protein stability index of 2.62.
For VVVSMDLDPQPITDEEEGLIWVVG [P1V], the protein stability index was 1.86.
For TVVSMDLDPQPITDEEEGLIWVVG [P1T], the protein stability index was 2.22.
Variant QVVSMDLDPQPITDEEEGLIWVVG [P1Q] has a protein stability index of 3.81.
Work on FVVSMDLDPQPITDEEEGLIWVVG [P1F] yielded a protein stability index of 1.19.
With GVVSMDLDPQPITDEEEGLIWVVG [P1G] the protein stability index was 3.77.
Variant LVVSMDLDPQPITDEEEGLIWVVG [P1L] has a protein stability index of 1.79.
